Source: patent US20210261648A1 (published 2021)
Residue numbers refer to the chain shown, from its start. Numbers in names are those of the source.

T1: FcγRIIb extracellular domain with C-terminal His tag (human, UniProt P31994 43-217)
T1 construct: extracellular domain; For crystallography it was expressed with kifunensine and trimmed with Endo F1; also called FcgRIIb; FcγRIIb extracellular region; not shown: His tag attached to the C terminus
T1 sequence (looked up): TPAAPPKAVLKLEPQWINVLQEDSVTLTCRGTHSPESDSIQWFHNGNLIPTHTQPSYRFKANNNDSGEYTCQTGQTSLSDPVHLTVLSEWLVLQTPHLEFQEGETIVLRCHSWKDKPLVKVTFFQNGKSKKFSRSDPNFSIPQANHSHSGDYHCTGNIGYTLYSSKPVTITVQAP

T2: FcγRIIa type R extracellular domain with C-terminal His tag (human, UniProt P12318 34-217)
T2 chain: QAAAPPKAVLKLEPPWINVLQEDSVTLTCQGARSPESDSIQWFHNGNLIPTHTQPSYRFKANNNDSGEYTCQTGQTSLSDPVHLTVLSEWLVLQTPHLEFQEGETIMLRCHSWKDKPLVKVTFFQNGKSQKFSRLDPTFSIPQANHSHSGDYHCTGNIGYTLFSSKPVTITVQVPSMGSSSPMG

T3: FcγRIIa type H extracellular domain with C-terminal His tag (human, UniProt P12318 34-217)
T3 construct: extracellular domain; also called FcgRIIaH; FcγRIIa H
T3 sequence (looked up): T2 chain with R134H

T4: FcγRIIb extracellular domain with C-terminal His tag (human, UniProt P31994 43-217)
T4 construct: extracellular domain; also called FcgRIIb
T4 sequence (looked up): T1 sequence (looked up)

B1: IL6R-BP562/IL6R-L (antibody, human IgG1, kappa)
heavy: QVQLQESGPGLVKPSETLSLTCAVSGHSISHDHAWSWVRQPPGEGLEWIGFISYSGITNYNPSLQGRVTISRDNSKNTLYLQMNSLRAEDTAVYYCARSLARTTAMDYWGEGTLVTVSSASTKGPSVFPLAPSSKSTSGGTAALGCLVKDYFPEPVTVSWNSGALTSGVHTFPAVLQSSGLYSLSSVVTVPSSSLGTQTYICNVNHKPSNTKVDKKVEPKSCDKTHTCPPCPAPELLGDDSVFLFPPKPKDTLMISRTPEVTCVVVDVSDEDGDVKFNWYVDGVEVHNAKTKPREEQDNSTYRVVSVLTVLHQDWLNGKEYKCKVSNKALPRPIEKTISKAKGQPREPQVYTLPPSRDELTKNQVSLTCLVKGFYPSDIAVEWESNGQPENNYKTTPPVLDSDGSFFLYSKLTVDKSRWQQGNVFSCSVMHEALHNHYTQESLSLSP
light: not shown
notes: Anti-human IL-6R IgG1; alterations introduced into IL6R-B3 (G1d with K439E)
B2: IL6R-BP560/IL6R-L (antibody, human IgG1, kappa)
heavy: B1 heavy with D239G, S269G, D270E, D274E
light: not shown
notes: as for B1
B3: IL6R-BP564/IL6R-L (antibody, human IgG1, kappa)
heavy: B1 heavy with D270E
light: not shown
notes: as for B1
B4: IL6R-BP561/IL6R-L (antibody, human IgG1, kappa)
heavy: B1 heavy with E235D
light: not shown
notes: as for B1
B5: GpH7-A5/GpH7-B3/GpL16-k0 (antibody, human IgG1, kappa)
heavy 1: not shown
heavy 2: not shown
light: DIVMTQSPLSLPVTPGEPASISCQASESLVHSNRNTYLHWYLQKPGQSPQLLIYKVSNRFSGVPDRFSGSGSGTDFTLKISRVEAEDVGVYYCSQNTHVPPTFGQGTKVEIERTVAAPSVFIFPPSDEQLKSGTASVVCLLNNFYPREAKVQWKVDNALQSGNSQESVTEQDSKDSTYSLSSTLTLSKADYEKHKVYACEVTHQGLSSPVTKSFNRGEC
notes: Heterodimerized anti-glypican 3 IgG1 (A5: D356K/H435R; B3: K439E); also called A5/B3
B6: GpH7-AP001/GpH7-BP057/GpL16-k0 (antibody, human IgG1, kappa)
heavy 1: QVQLVQSGAEVKKPGASVTVSCKASGYTFTDYEMHWIRQPPGEGLEWIGAIDPKTGDTAYSESFQDRVTLTADKSTSTAYMELSSLTSEDTAVYYCTRFYSYTYWGQGTLVTVSSASTKGPSVFPLAPSSKSTSGGTAALGCLVKDYFPEPVTVSWNSGALTSGVHTFPAVLQSSGLYSLSSVVTVPSSSLGTQTYICNVNHKPSNTKVDKKVEPKSCDKTHTCPPCPAPELLGGDSVFLFPPKPKDTLMISRTPEVTCVVVDVSHEDPEVKFNWYVDGVEVHNAKTKPREEQYNSTYRVVSVLTVLHQDWLNGKEYKCKVSNKALPAPIEKTISKAKGQPREPQVYTLPPSRKELTKNQVSLTCLVKGFYPSDIAVEWESNGQPENNYKTTPPVLDSDGSFFLYSKLTVDKSRWQQGNVFSCSVMHEALHNRYTQKSLSLSP
heavy 2: not shown
light: B5 light
notes: Heterodimerized anti-glypican 3 IgG1; copies: 1 + 1 + 2
B7: GpH7-AP001/GpH7-BP032/GpL16-k0 (antibody, human IgG1, kappa)
heavy 1: B6 heavy 1
heavy 2: not shown
light: B5 light
notes: as for B6
B8: GpH7-AP001/GpH7-BP069/GpL16-k0 (antibody, human IgG1, kappa, name in EU numbering)
heavy 1: B6 heavy 1
heavy 2: not shown
light: B5 light
notes: Heterodimerized anti-glypican 3 IgG1
B9: GpH7-AP001/GpH7-BP063/GpL16-k0 (antibody, human IgG1, kappa, name in EU numbering)
heavy 1: B6 heavy 1
heavy 2: not shown
light: B5 light
notes: as for B8
B10: GpH7-A5/GpH7-BF648/GpL16-k0 (antibody, human IgG1, kappa)
heavy 1: not shown
heavy 2: not shown
light: B5 light
notes: Heterodimerized anti-glypican 3 IgG1; P238D in the GpH7-B3 chain only
B11: GpH7-AP001/GpH7-BP044/GpL16-k0 (antibody, human IgG1, kappa)
heavy 1: B6 heavy 1
heavy 2: not shown
light: B5 light
notes: as for B6
B12: IL6R-2B253/IL6R-L (antibody, human IgG1, kappa)
heavy: B1 heavy with E235D, D239G, D270H, G273P, D274E, D298Y, V325M, R332A
light: not shown
B13: IL6R-BP206/IL6R-L (antibody, human IgG1, kappa)
heavy: B1 heavy with E235D, D239G, D270H, D274E, D298Y
light: not shown
B14: IL6R-BP199/IL6R-L (antibody, human IgG1, kappa)
heavy: B1 heavy with E235D, D239G, D270H, G273P, D274E, D298Y, K328D
light: not shown
B15: IL6R-BP209/IL6R-L (antibody, human IgG1, kappa)
heavy: B1 heavy with D274E, D298Y, K328A
light: not shown
B16: IL6R-BP203/IL6R-L (antibody, human IgG1, kappa)
heavy: B1 heavy with D270H, D274E, D298Y
light: not shown
B17: IL6R-BP211/IL6R-L (antibody, human IgG1, kappa)
heavy: B1 heavy with E235D, D239G, D274E, D298Y, K328A
light: not shown
B18: IL6R-BP213/IL6R-L (antibody, human IgG1, kappa)
heavy: B1 heavy with E235D, D239G, D274E, D298Y
light: not shown
B19: IL6R-BP207/IL6R-L (antibody, human IgG1, kappa)
heavy: B1 heavy with E235D, D239G, D270H, G273P, D274E, D298Y
light: not shown

target: T1, FcγRIIb extracellular domain with …; experiment: SPR; KD for FcγRIIaH divided by KD for FcγRIIb

Binder | KD(IIaH)/KD(IIb)
B1 | 466
B2 | 168
B3 | 454

Target: T2, FcγRIIa type R extracellular domain …
Experiment: SPR (Biacore), antibody captured, FcγR as analyte

Binder | Kd [nM]
B1 | 680
B2 | 4200
B4 | 510
B3 | 580

target: T5, FcγRIa extracellular domain with C-terminal His tag (human, UniProt P12314 16-292); experiment: SPR (Biacore), antibody captured, FcγR as analyte
T5 construct: also called FcgRIa; not shown: His tag attached to the C terminus
T5 sequence (P12314 16-292): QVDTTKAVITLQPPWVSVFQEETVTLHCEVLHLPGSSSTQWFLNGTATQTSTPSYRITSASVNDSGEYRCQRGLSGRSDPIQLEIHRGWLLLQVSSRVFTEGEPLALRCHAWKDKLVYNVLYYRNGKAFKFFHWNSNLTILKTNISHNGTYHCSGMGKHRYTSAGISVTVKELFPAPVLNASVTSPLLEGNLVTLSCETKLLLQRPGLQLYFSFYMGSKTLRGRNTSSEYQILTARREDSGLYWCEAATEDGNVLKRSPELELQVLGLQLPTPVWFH

Binder | Kd [nM]
B1 | 25
B2 | 5.6
B4 | 9.4
B3 | 31

target: T1, FcγRIIb extracellular domain with …; experiment: SPR (Biacore), antibody captured, FcγR as analyte

Binder | Kd [nM]
B1 | 24
B2 | 180
B4 | 18
B3 | 22

Target: T2, FcγRIIa type R extracellular domain …
Experiment: SPR binding amount, relative to GpH7-AP001/GpH7-BF648/GpL16-k0

Binder | binding amount to FcgRIIaR when that of GpH7-AP001/GpH7-BF648 is defined as 100
B5 | 570
B6 | 561
B7 | 538
B8 | 131
B9 | 161
B10 | 677
B11 | 609

target: T1, FcγRIIb extracellular domain with …; experiment: as above

Binder | binding amount to FcgRIIb when that of GpH7-AP001/GpH7-BF648 is defined as 100
B5 | 77
B6 | 121
B7 | 129
B8 | 72
B9 | 69
B10 | 131
B11 | 127

target: T6, FcγRIIIa type V extracellular domain with C-terminal His tag (human, UniProt P08637 17-208); experiment: SPR, captured antibody, FcgR analyte
T6 construct: extracellular domain; also called FcgRIIIaV; FcγRIIIaV
T6 sequence (P08637 17-208 F176V): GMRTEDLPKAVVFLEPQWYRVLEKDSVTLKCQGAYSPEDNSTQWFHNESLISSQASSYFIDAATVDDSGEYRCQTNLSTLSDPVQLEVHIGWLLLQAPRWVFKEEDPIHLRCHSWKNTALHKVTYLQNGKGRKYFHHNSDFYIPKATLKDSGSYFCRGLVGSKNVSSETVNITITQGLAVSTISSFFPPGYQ
Procedure: (§1) Relative binding activities were calculated for the results of analyzing interactions with the respective FcγRs according to the following method.

Binder | relative binding activity
B12 | 126 relative (IL6R-BF648/IL6R-L = 100)
B13 | 92 relative (IL6R-BF648/IL6R-L = 100)
B14 | 103 relative (IL6R-BF648/IL6R-L = 100)
B15 | 153 relative (IL6R-BF648/IL6R-L = 100)
B16 | 88 relative (IL6R-BF648/IL6R-L = 100)
B17 | 87 relative (IL6R-BF648/IL6R-L = 100)
B18 | 100 relative (IL6R-BF648/IL6R-L = 100)
B19 | 97 relative (IL6R-BF648/IL6R-L = 100)

target: T3, FcγRIIa type H extracellular domain …; experiment: SPR, captured antibody, FcgR analyte
Procedure: as §1

Binder | relative binding activity
B12 | 207 relative (IL6R-BF648/IL6R-L = 100)
B15 | 267 relative (IL6R-BF648/IL6R-L = 100)
B16 | 255 relative (IL6R-BF648/IL6R-L = 100)
B18 | 123 relative (IL6R-BF648/IL6R-L = 100)

target: T4, FcγRIIb extracellular domain with …; experiment: SPR, captured antibody, FcgR analyte
Procedure: as §1

Binder | relative binding activity
B12 | 156 relative (IL6R-BF648/IL6R-L = 100)
B13 | 168 relative (IL6R-BF648/IL6R-L = 100)
B14 | 144 relative (IL6R-BF648/IL6R-L = 100)
B15 | 186 relative (IL6R-BF648/IL6R-L = 100)
B16 | 185 relative (IL6R-BF648/IL6R-L = 100)
B17 | 165 relative (IL6R-BF648/IL6R-L = 100)
B18 | 169 relative (IL6R-BF648/IL6R-L = 100)
B19 | 124 relative (IL6R-BF648/IL6R-L = 100)

target: T7, FcγRIa extracellular domain with C-terminal His tag (human, UniProt P12314 16-292); experiment: SPR, captured antibody, FcgR analyte
T7 construct: also called FcgRIa
T7 sequence (P12314 16-292): as the sequence (P12314 16-292) above
Procedure: as §1

Binder | relative binding activity
B12 | 155 relative (IL6R-BF648/IL6R-L = 100)
B13 | 101 relative (IL6R-BF648/IL6R-L = 100)
B14 | 112 relative (IL6R-BF648/IL6R-L = 100)
B15 | 68 relative (IL6R-BF648/IL6R-L = 100)
B16 | 35 relative (IL6R-BF648/IL6R-L = 100)
B17 | 128 relative (IL6R-BF648/IL6R-L = 100)
B18 | 118 relative (IL6R-BF648/IL6R-L = 100)
B19 | 74 relative (IL6R-BF648/IL6R-L = 100)

Target: T2, FcγRIIa type R extracellular domain …
Experiment: SPR; KD of IL6R-B3/IL6R-L divided by KD of the variant

Binder | KD(IIaR) of the parent polypeptide/KD(IIaR) of the altered polypeptide
B1 | 1.6
B2 | 0.3
B3 | 1.9

target: T1, FcγRIIb extracellular domain with …; experiment: as above

Binder | KD(IIb) of the parent polypeptide/KD(IIb) of the altered polypeptide
B1 | 131
B2 | 16.8
B3 | 141

target: T1, FcγRIIb extracellular domain with …; experiment: SPR binding amounts, FcgRIIb divided by FcgRIIaR

Binder | amount binding to FcgRIIb/amount binding to FcgRIIaR
B5 | 0.5
B6 | 0.9
B7 | 1
B8 | 2.2
B9 | 1.7
B10 | 0.8
B11 | 0.8

target: T1, FcγRIIb extracellular domain with …; experiment: SPR; KD for FcγRIIaR divided by KD for FcγRIIb

Binder | KD(IIaR)/KD(IIb)
B1 | 29
B2 | 22.8
B3 | 26.2
